Test results from patent US6051381, “Prokaryotic two-hybrid system” (dated 2000).

Tests used:
[1] = molecular target: Jun-LexADNA (mouse; E. coli) (UniProt P05627); assay: E. coli two-hybrid, lacZ repression; reporter construct P3IHFLexAOpX
[2] = molecular target: Jun-LexADNA (mouse; E. coli) (UniProt P05627); assay: E. coli two-hybrid, lacZ repression; reporter construct P3
[3] = molecular target: Jun-LexADNA (mouse; E. coli) (UniProt P05627); assay: E. coli two-hybrid, lacZ repression; reporter construct P3LexAOpH
[4] = molecular target: Jun-LexADNA (mouse; E. coli) (UniProt P05627); assay: E. coli two-hybrid, lacZ repression; reporter construct P3IHFLexAOpH
[5] = molecular target: Jun-LexADNA (mouse; E. coli) (UniProt P05627); assay: E. coli two-hybrid, lacZ repression; reporter construct P3LexAOpX
[6] = molecular target: Jun-LexADNA (mouse; E. coli) (UniProt P05627); assay: E. coli two-hybrid, lacZ repression; reporter construct P3IHFLexAOpmH
E6-LexA (E. coli; HPV) [7] = molecular target: E6-LexA (E. coli; HPV) (UniProt P0A7C2); assay: E. coli two-hybrid, lacZ repression; 0.5 mM IPTG, 50 ng/ml anhydrotetracycline; reporter P3IHFLexAimpX
[8] = molecular target: Fos-LexA (E. coli; mouse) (UniProt P01101); assay: E. coli two-hybrid, lacZ repression; reporter plasmid P3IHFLexAOpimpX
zip-LexADNA (E. coli) [9] = assay: E. coli two-hybrid, lacZ repression; reporter construct P3LexAOpX
zip-LexADNA (E. coli) [10] = assay: E. coli two-hybrid, lacZ repression; reporter construct P3LexAOpH
zip-LexADNA (E. coli) [11] = assay: E. coli two-hybrid, lacZ repression; reporter construct P3
zip-LexADNA (E. coli) [12] = assay: E. coli two-hybrid, lacZ repression; reporter construct P3IHFLexAOpH
zip-LexADNA (E. coli) [13] = assay: E. coli two-hybrid, lacZ repression; reporter construct P3IHFLexAOpX
zip-LexADNA (E. coli) [14] = assay: E. coli two-hybrid, lacZ repression; reporter construct P3IHFLexAOpmH
E6-LexA (E. coli; HPV) [15] = molecular target: E6-LexA (E. coli; HPV) (UniProt P0A7C2); assay: E. coli two-hybrid, lacZ repression; non-interacting control pair; reporter P3IHFLexAimpX
wild-type AraC = molecular target: T1, wild-type AraC (E. coli, UniProt P0A9E0); assay: E. coli two-hybrid, lacZ repression, reporter P3IHFLexAOpimpX
T1 sequence: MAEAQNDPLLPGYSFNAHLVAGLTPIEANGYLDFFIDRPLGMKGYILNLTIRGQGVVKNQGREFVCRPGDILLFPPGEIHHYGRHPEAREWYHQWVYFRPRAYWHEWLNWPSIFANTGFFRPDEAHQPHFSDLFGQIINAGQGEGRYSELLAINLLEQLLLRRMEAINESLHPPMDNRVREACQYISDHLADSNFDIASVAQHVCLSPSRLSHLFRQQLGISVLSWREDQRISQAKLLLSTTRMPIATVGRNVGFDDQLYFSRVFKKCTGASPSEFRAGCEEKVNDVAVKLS

Fos-AraCDNA (from UniProt P01101)
repression ratio [1]: 4.2 | repression ratio [2]: 1.1 | repression ratio [3]: 2 | repression ratio [4]: 1.9 | repression ratio [5]: 2.3

AraCDNA
repression ratio [1]: 1.1 | repression ratio [6]: 1.09

E6AP-AraCDNA (from UniProt Q05086)
repression ratio (E6-LexA (E. coli; HPV) [7]): > 30 fold

Jun-AraC (from UniProt P05627)
repression ratio [8]: 11 fold

B1: wild-type AraC (protein)
chain: MAEAQNDPLLPGYSFNAHLVAGLTPIEANGYLDFFIDRPLGMKGYILNLTIRGQGVVKNQGREFVCRPGDILLFPPGEIHHYGRHPEAREWYHQWVYFRPRAYWHEWLNWPSIFANTGFFRPDEAHQPHFSDLFGQIINAGQGEGRYSELLAINLLEQLLLRRMEAINESLHPPMDNRVREACQYISDHLADSNFDIASVAQHVCLSPSRLSHLFRQQLGISVLSWREDQRISQAKLLLSTTRMPIATVGRNVGFDDQLYFSRVFKKCTGASPSEFRAGCEEKVNDVAVKLS
repression ratio (zip-LexADNA (E. coli) [9]): 1.2 | repression ratio (zip-LexADNA (E. coli) [10]): 1.1 | repression ratio (zip-LexADNA (E. coli) [11]): 1.2 | repression ratio (zip-LexADNA (E. coli) [12]): 1 | repression ratio (zip-LexADNA (E. coli) [13]): 1.2 | repression ratio (zip-LexADNA (E. coli) [14]): 1.06

B2: AraCDNA (protein)
chain: ESLHPPMDNRVREACQYISDHLADSNFDIASVAQHVCLSPSRLSHLFRQQLGISVLSWREDQRISQAKLLLSTTRMPIATVGRNVGFDDQLYFSRVFKKCTGASPSEFRAGCEEKVNDVAVKLS
repression ratio (zip-LexADNA (E. coli) [9]): 1.1 | repression ratio (zip-LexADNA (E. coli) [10]): 1 | repression ratio (zip-LexADNA (E. coli) [11]): 1.2 | repression ratio (E6-LexA (E. coli; HPV) [15]): 1.5 | repression ratio (zip-LexADNA (E. coli) [12]): 1.1 | repression ratio (zip-LexADNA (E. coli) [13]): 1.2 | repression ratio (zip-LexADNA (E. coli) [14]): 0.9

B3: Fos-LexA (other)
chain: RGKVEQLSPEEEEKRRIRRERNKMAAAKCRNRRRELTDTLQAETDQLEDEKSALQTEIANLLKEKEKLEFILAAHRPACKIPDDLGFPEEMSV
binding result (wild-type AraC): no binding
